Assay results published in patent US20140087995A1 (published 2014).
Numbered stars: 1 amine (or outer) side, 2 acyl side, 3 side chain; on linkers, the order of the positions; unused ones are H or OH. Bridge positions count the residues as written; N and C are the ends. * marks the point of attachment. C20 diacid = O=C(O)CCCCCCCCCCCCCCCCCCC(=O)*; γGlu = O=C(O)[C@H](CCC(=O)[*:2])N[*:1]

Assays:
[1] = molecular target: T1, human amylin 3(a) receptor (human calcitonin receptor plus RAMP-3) (human, UniProt P30988 25-474; O60896 24-148, limits assumed); test: cell-based or functional assay
T1 sequence (looked up) 1: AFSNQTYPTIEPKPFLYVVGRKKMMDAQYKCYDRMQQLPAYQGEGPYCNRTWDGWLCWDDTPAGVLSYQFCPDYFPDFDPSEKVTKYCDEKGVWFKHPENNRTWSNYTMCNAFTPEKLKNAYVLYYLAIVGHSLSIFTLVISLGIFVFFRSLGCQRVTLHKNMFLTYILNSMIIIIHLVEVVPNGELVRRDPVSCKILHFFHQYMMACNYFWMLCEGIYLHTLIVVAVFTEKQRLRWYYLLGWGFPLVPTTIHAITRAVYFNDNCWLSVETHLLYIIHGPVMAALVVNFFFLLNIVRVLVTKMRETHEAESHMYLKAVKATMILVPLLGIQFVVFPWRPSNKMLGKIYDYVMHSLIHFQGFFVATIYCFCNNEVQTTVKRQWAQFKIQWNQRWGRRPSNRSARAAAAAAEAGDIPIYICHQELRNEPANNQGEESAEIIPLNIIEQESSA
T1 sequence (looked up) 2: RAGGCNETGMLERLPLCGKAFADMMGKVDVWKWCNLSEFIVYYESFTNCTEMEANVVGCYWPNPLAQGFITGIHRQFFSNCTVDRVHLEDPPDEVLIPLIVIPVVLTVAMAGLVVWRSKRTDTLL

[2] = molecular target: T2, human calcitonin receptor (human, UniProt P30988 25-474); test: cell-based or functional assay
T2 sequence (looked up): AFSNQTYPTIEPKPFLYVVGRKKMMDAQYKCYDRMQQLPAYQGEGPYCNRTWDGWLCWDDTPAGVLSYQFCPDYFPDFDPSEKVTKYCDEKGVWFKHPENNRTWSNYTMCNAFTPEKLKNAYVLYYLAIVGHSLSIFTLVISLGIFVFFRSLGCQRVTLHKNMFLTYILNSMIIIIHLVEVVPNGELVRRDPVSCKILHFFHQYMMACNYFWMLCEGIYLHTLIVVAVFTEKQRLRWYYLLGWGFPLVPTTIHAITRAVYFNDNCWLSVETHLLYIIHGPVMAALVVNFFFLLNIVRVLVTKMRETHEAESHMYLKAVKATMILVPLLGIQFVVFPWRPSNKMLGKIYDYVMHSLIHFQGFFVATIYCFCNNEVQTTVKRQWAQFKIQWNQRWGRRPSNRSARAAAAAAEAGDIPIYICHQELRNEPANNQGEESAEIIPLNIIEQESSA

[3] = molecular target: T1, human amylin 3(a) receptor (human …); test: SPA competition binding, displacement of 125I-rat amylin from membranes of Amylin 3(a)/CRE-luc BHK cells (Assay V)
Experimental: The binding assay was performed using scintillation proximity assay (SPA) beads (RPNQ0001) from PerkinElmer and cell membranes from the Amylin 3(a)/CRE-luc cells (as described in Assay (II)) were used. Membranes were prepared in the following way; the cells were rinsed with PBS and incubated with Versene for approximately 5 min before harvesting. The cells were flushed with PBS and the cell-suspension was centrifuged for 5 min at 1000 rpm. Cells were homogenized (ultrathurrax) in a buffer containing 20 mM Na-HEPES and 10 mM EDTA (pH 7.4) and centrifuged at 20.000 rpm for 15 min. The resulting pellet was resuspended, homogenized and centrifuged (20.000 rpm, 15 min) in a buffer containing 20 mM Na-HEPES and 0.1 mM EDTA (pH 7.4, buffer 2). The resulting pellet was resuspended in buffer 2 and protein concentration was measured (BCA protein Assay, Pierce). The homogenate was kept cold during the whole procedure. The membranes were kept at −80° C. until use. The assay was performed in a 384 well Optiplate (PerkinElmer) in a total volume of 40 ul. Membranes were mixed with SPA beads. Final concentration of membranes 35 ng/μL final and SPA beads was 0.05 mg/well. Test-compounds were dissolved in DMSO and further diluted in assay buffer (50 mM Hepes, pH 7.4, 1 mM CaCl2, 5 mM MgCl₂, 0.1% OA and 0.02% Tween20). […] The final mixture was incubated with shaking at 400 rpm for 120 min at 25° C. prior to centrifugation (1500 rpm, 10 min). Samples were analyzed on TopCounter™ (Packard). The IC₅₀ was calculated using (one site binding competition analysis) GraphPad Prism5 as a measure of receptor affinity.

B1: N^α1-[(4S)-4-carboxy-4-(19-carboxynonadecanoylamino)butanoyl]-[Glu14,Arg17,Pro21,Pro25,Pro28,Pro29]-h-amylin (peptide)
peptide: {C20 diacid-γGlu}-KCNTATCATQRLAEFLRHSSPNFGPILPPTNVGSNTY-NH2
modifications: disulfide 2-7
SMILES: CC[C@H](C)[C@H](NC(=O)[C@@H]1CCCN1C(=O)CNC(=O)[C@H](Cc1ccccc1)NC(=O)[C@H](CC(N)=O)NC(=O)[C@@H]1CCCN1C(=O)[C@H](CO)NC(=O)[C@H](CO)NC(=O)[C@H](Cc1c[nH]cn1)NC(=O)[C@H](CCCNC(=N)N)NC(=O)[C@H](CC(C)C)NC(=O)[C@H](Cc1ccccc1)NC(=O)[C@H](CCC(=O)O)NC(=O)[C@H](C)NC(=O)[C@H](CC(C)C)NC(=O)[C@H](CCCNC(=N)N)NC(=O)[C@H](CCC(N)=O)NC(=O)[C@@H](NC(=O)[C@H](C)NC(=O)[C@@H]1CSSC[C@H](NC(=O)[C@H](CCCCN)NC(=O)CC[C@H](NC(=O)CCCCCCCCCCCCCCCCCCC(=O)O)C(=O)O)C(=O)N[C@@H](CC(N)=O)C(=O)N[C@@H]([C@@H](C)O)C(=O)N[C@@H](C)C(=O)N[C@@H]([C@@H](C)O)C(=O)N1)[C@@H](C)O)C(=O)N[C@@H](CC(C)C)C(=O)N1CCC[C@H]1C(=O)N1CCC[C@H]1C(=O)N[C@H](C(=O)N[C@@H](CC(N)=O)C(=O)N[C@H](C(=O)NCC(=O)N[C@@H](CO)C(=O)N[C@@H](CC(N)=O)C(=O)N[C@H](C(=O)N[C@@H](Cc1ccc(O)cc1)C(N)=O)[C@@H](C)O)C(C)C)[C@@H](C)O
notes: also called compound 6
[1]
  Ratio hCT/hAmylin funct.: 5.7
  hAmylin-R funct. EC50: 0.128 nM
[2]
  hCTR funct. EC50: 0.729 nM
[3]
  IC50: 0.996 nM

B2: N^α1-[(4S)-4-carboxy-4-(19-carboxynonadecanoylamino)butanoyl]-[Glu14,Arg17,Pro21,Pro27,Arg35]-h-amylin (peptide)
peptide: {C20 diacid-γGlu}-KCNTATCATQRLAEFLRHSSPNFGAIPSSTNVGSRTY-NH2
modifications: disulfide 2-7
SMILES: CC[C@H](C)[C@H](NC(=O)[C@H](C)NC(=O)CNC(=O)[C@H](Cc1ccccc1)NC(=O)[C@H](CC(N)=O)NC(=O)[C@@H]1CCCN1C(=O)[C@H](CO)NC(=O)[C@H](CO)NC(=O)[C@H](Cc1c[nH]cn1)NC(=O)[C@H](CCCNC(=N)N)NC(=O)[C@H](CC(C)C)NC(=O)[C@H](Cc1ccccc1)NC(=O)[C@H](CCC(=O)O)NC(=O)[C@H](C)NC(=O)[C@H](CC(C)C)NC(=O)[C@H](CCCNC(=N)N)NC(=O)[C@H](CCC(N)=O)NC(=O)[C@@H](NC(=O)[C@H](C)NC(=O)[C@@H]1CSSC[C@H](NC(=O)[C@H](CCCCN)NC(=O)CC[C@H](NC(=O)CCCCCCCCCCCCCCCCCCC(=O)O)C(=O)O)C(=O)N[C@@H](CC(N)=O)C(=O)N[C@@H]([C@@H](C)O)C(=O)N[C@@H](C)C(=O)N[C@@H]([C@@H](C)O)C(=O)N1)[C@@H](C)O)C(=O)N1CCC[C@H]1C(=O)N[C@@H](CO)C(=O)N[C@@H](CO)C(=O)N[C@H](C(=O)N[C@@H](CC(N)=O)C(=O)N[C@H](C(=O)NCC(=O)N[C@@H](CO)C(=O)N[C@@H](CCCNC(=N)N)C(=O)N[C@H](C(=O)N[C@@H](Cc1ccc(O)cc1)C(N)=O)[C@@H](C)O)C(C)C)[C@@H](C)O
notes: also called compound 16
[1]
  Ratio hCT/hAmylin funct.: 6.1
  hAmylin-R funct. EC50: 0.363 nM
[2]
  hCTR funct. EC50: 2.21 nM
[3]
  IC50: 0.894 nM

B3: N^α1-[(4S)-4-carboxy-4-(19-carboxynonadecanoylamino)butanoyl]-[Glu14,Arg17,Pro21,Pro27,Asp35,Pro37]-h-amylin (peptide)
peptide: {C20 diacid-γGlu}-KCNTATCATQRLAEFLRHSSPNFGAIPSSTNVGSDTP-NH2
modifications: disulfide 2-7
SMILES: CC[C@H](C)[C@H](NC(=O)[C@H](C)NC(=O)CNC(=O)[C@H](Cc1ccccc1)NC(=O)[C@H](CC(N)=O)NC(=O)[C@@H]1CCCN1C(=O)[C@H](CO)NC(=O)[C@H](CO)NC(=O)[C@H](Cc1c[nH]cn1)NC(=O)[C@H](CCCNC(=N)N)NC(=O)[C@H](CC(C)C)NC(=O)[C@H](Cc1ccccc1)NC(=O)[C@H](CCC(=O)O)NC(=O)[C@H](C)NC(=O)[C@H](CC(C)C)NC(=O)[C@H](CCCNC(=N)N)NC(=O)[C@H](CCC(N)=O)NC(=O)[C@@H](NC(=O)[C@H](C)NC(=O)[C@@H]1CSSC[C@H](NC(=O)[C@H](CCCCN)NC(=O)CC[C@H](NC(=O)CCCCCCCCCCCCCCCCCCC(=O)O)C(=O)O)C(=O)N[C@@H](CC(N)=O)C(=O)N[C@@H]([C@@H](C)O)C(=O)N[C@@H](C)C(=O)N[C@@H]([C@@H](C)O)C(=O)N1)[C@@H](C)O)C(=O)N1CCC[C@H]1C(=O)N[C@@H](CO)C(=O)N[C@@H](CO)C(=O)N[C@H](C(=O)N[C@@H](CC(N)=O)C(=O)N[C@H](C(=O)NCC(=O)N[C@@H](CO)C(=O)N[C@@H](CC(=O)O)C(=O)N[C@H](C(=O)N1CCC[C@H]1C(N)=O)[C@@H](C)O)C(C)C)[C@@H](C)O
notes: also called compound 11
[1]
  Ratio hCT/hAmylin funct.: 0.9
  hAmylin-R funct. EC50: 0.12 nM
[2]
  hCTR funct. EC50: 0.112 nM
[3]
  IC50: 0.105 nM

B4: N^α1-[(4S)-4-carboxy-4-(19-carboxynonadecanoylamino)butanoyl]-[Glu14,Arg17,Pro21,Pro26]-h-amylin (peptide)
peptide: {C20 diacid-γGlu}-KCNTATCATQRLAEFLRHSSPNFGAPLSSTNVGSNTY-NH2
modifications: disulfide 2-7
SMILES: CC(C)C[C@H](NC(=O)[C@H](CCCNC(=N)N)NC(=O)[C@H](CCC(N)=O)NC(=O)[C@@H](NC(=O)[C@H](C)NC(=O)[C@@H]1CSSC[C@H](NC(=O)[C@H](CCCCN)NC(=O)CC[C@H](NC(=O)CCCCCCCCCCCCCCCCCCC(=O)O)C(=O)O)C(=O)N[C@@H](CC(N)=O)C(=O)N[C@@H]([C@@H](C)O)C(=O)N[C@@H](C)C(=O)N[C@@H]([C@@H](C)O)C(=O)N1)[C@@H](C)O)C(=O)N[C@@H](C)C(=O)N[C@@H](CCC(=O)O)C(=O)N[C@@H](Cc1ccccc1)C(=O)N[C@@H](CC(C)C)C(=O)N[C@@H](CCCNC(=N)N)C(=O)N[C@@H](Cc1c[nH]cn1)C(=O)N[C@@H](CO)C(=O)N[C@@H](CO)C(=O)N1CCC[C@H]1C(=O)N[C@@H](CC(N)=O)C(=O)N[C@@H](Cc1ccccc1)C(=O)NCC(=O)N[C@@H](C)C(=O)N1CCC[C@H]1C(=O)N[C@@H](CC(C)C)C(=O)N[C@@H](CO)C(=O)N[C@@H](CO)C(=O)N[C@H](C(=O)N[C@@H](CC(N)=O)C(=O)N[C@H](C(=O)NCC(=O)N[C@@H](CO)C(=O)N[C@@H](CC(N)=O)C(=O)N[C@H](C(=O)N[C@@H](Cc1ccc(O)cc1)C(N)=O)[C@@H](C)O)C(C)C)[C@@H](C)O
notes: also called compound 7
[1]
  Ratio hCT/hAmylin funct.: 4.5
  hAmylin-R funct. EC50: 0.255 nM
[2]
  hCTR funct. EC50: 1.16 nM
[3]
  IC50: 0.674 nM

B5: N^α1-[(4S)-4-carboxy-4-(19-carboxynonadecanoylamino)butanoyl]-[Glu14,Arg17,Pro21,Pro26,Pro37]-h-amylin (peptide)
peptide: {C20 diacid-γGlu}-KCNTATCATQRLAEFLRHSSPNFGAPLSSTNVGSNTP-NH2
modifications: disulfide 2-7
SMILES: CC(C)C[C@H](NC(=O)[C@H](CCCNC(=N)N)NC(=O)[C@H](CCC(N)=O)NC(=O)[C@@H](NC(=O)[C@H](C)NC(=O)[C@@H]1CSSC[C@H](NC(=O)[C@H](CCCCN)NC(=O)CC[C@H](NC(=O)CCCCCCCCCCCCCCCCCCC(=O)O)C(=O)O)C(=O)N[C@@H](CC(N)=O)C(=O)N[C@@H]([C@@H](C)O)C(=O)N[C@@H](C)C(=O)N[C@@H]([C@@H](C)O)C(=O)N1)[C@@H](C)O)C(=O)N[C@@H](C)C(=O)N[C@@H](CCC(=O)O)C(=O)N[C@@H](Cc1ccccc1)C(=O)N[C@@H](CC(C)C)C(=O)N[C@@H](CCCNC(=N)N)C(=O)N[C@@H](Cc1c[nH]cn1)C(=O)N[C@@H](CO)C(=O)N[C@@H](CO)C(=O)N1CCC[C@H]1C(=O)N[C@@H](CC(N)=O)C(=O)N[C@@H](Cc1ccccc1)C(=O)NCC(=O)N[C@@H](C)C(=O)N1CCC[C@H]1C(=O)N[C@@H](CC(C)C)C(=O)N[C@@H](CO)C(=O)N[C@@H](CO)C(=O)N[C@H](C(=O)N[C@@H](CC(N)=O)C(=O)N[C@H](C(=O)NCC(=O)N[C@@H](CO)C(=O)N[C@@H](CC(N)=O)C(=O)N[C@H](C(=O)N1CCC[C@H]1C(N)=O)[C@@H](C)O)C(C)C)[C@@H](C)O
notes: also called compound 5
[1]
  Ratio hCT/hAmylin funct.: 1
  hAmylin-R funct. EC50: 0.162 nM
[2]
  hCTR funct. EC50: 0.16 nM
[3]
  IC50: 0.374 nM
